Among the targets are HLA-B*07:02; HLA-B*44:03; HLA-A*02:01; HLA-B*53:01; HLA-B*57:01.
Holding throughout (test): IEDB peptide-MHC binding, purified MHC/competitive/radioactivity; ≥ and ≤ were set here for values at or beyond the usual limits of such assays
Common to all, as to conditions: source organism: Bordetella pertussis

A value given as a limit tells only on which side of the number the result lay.

One may read the IC50 as the concentration that inhibits the measured activity by half.

Regarding SPQPIRATV, the IC50 with HLA-B*07:02 was determined as 0.149 µM.
For the sequence SEAMAAWSE, the IC50 with HLA-B*44:03 is 7.6 µM.
As for WLTWLAILA, the IC50 with HLA-A*02:01 came out at 40.1 µM.
Consider HSLYASYEY, for which the values for the IC50 with HLA-B*53:01 and with HLA-B*57:01 were 42.5 µM and 0.116 µM, respectively.
With GLTDGVSRI, the IC50 with HLA-A*02:01 worked out at 69.4 µM.
As to AAPAAHADW, in the assay with HLA-B*57:01, the IC50 was 19.8 µM.
In the case of LNDSKITMG, the IC50 with HLA-B*53:01 is at least 78.2 µM.
Regarding IAHRTELRG, in the assay with HLA-B*57:01, the IC50 was 66.2 µM.
With LVYYESIAY, the IC50 with HLA-B*53:01 amounted to 12 µM.
For the sequence RVTVSGGSL, the IC50 in the assay with HLA-B*07:02 was 14.5 µM.
IENTAKLSG: the IC50 with HLA-B*44:03 worked out at 44.4 µM.
Same read-out and setting: under AAMQGAVVH stands at least 78.2 µM.

Source of the values: the Immune Epitope Database (IEDB).
